In paper PMC5117854, “Functional asymmetry and electron flow in the bovine respirasome” (eLife, 2016):

T1: subunit 1 of complex III (bovine (endogenous in heart …, UniProt P31800 35-480))
T1 construct: complex III subunit 1, bovine heart; stood in the assay as a subunit of the complex III dimer within the respirasome; also called subunit 1 of the bc1 complex; source: endogenous, bovine heart mitochondria; part of the supercomplex I1III2IV1 purified in amphipol A8-35
T1 sequence (looked up): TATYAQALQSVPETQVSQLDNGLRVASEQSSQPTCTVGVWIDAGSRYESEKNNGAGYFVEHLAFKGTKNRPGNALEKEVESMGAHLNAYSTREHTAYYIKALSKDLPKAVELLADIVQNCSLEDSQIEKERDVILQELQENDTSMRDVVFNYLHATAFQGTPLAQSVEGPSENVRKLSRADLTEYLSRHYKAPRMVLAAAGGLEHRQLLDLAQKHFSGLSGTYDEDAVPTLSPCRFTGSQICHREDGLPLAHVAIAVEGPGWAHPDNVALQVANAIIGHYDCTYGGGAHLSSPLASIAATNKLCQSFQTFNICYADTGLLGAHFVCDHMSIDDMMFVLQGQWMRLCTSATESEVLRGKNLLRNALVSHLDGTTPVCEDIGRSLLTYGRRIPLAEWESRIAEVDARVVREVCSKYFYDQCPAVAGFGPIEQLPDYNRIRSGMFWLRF


Key:
subunit ND5 of complex I = target: T2, subunit ND5 of complex I (bovine (endogenous in heart …, UniProt P03920 1-606)); assay: cryo-EM structure; class 1 map of supercomplex I1III2IV1 (17,094 particles, 9.1 Å; transmembrane region 8.6 Å); native supercomplex co-purified from bovine heart mitochondria (PCC-a-M, then amphipol A8-35, density gradient); atomic models of complexes I, III and IV docked; settings: both partners purified
T2 construct: complex I core subunit ND5, bovine heart; stood in the assay as a subunit of complex I within the respirasome; source: endogenous, bovine heart mitochondria; part of the supercomplex I1III2IV1 purified in amphipol A8-35
T2 sequence (P03920 whole entry, one chain of several): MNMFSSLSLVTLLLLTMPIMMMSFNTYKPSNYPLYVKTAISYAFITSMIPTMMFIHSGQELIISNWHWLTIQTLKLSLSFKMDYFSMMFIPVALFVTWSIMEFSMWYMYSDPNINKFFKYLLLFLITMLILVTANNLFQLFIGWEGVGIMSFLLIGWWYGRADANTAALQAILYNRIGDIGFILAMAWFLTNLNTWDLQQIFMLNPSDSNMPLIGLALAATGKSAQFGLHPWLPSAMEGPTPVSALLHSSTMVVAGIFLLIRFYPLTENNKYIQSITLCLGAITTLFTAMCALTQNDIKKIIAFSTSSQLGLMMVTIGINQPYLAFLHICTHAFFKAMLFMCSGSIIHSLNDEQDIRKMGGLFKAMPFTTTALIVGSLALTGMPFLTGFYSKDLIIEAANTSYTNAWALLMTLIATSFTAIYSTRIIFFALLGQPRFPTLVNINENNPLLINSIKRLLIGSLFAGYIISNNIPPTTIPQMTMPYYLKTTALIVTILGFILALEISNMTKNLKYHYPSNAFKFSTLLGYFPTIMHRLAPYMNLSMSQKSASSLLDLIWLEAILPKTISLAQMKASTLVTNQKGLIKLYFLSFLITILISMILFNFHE

subunit 1 of complex III = target: T1, subunit 1 of complex III; assay: as above; settings: both partners purified

Binder	binding result (subunit ND5 of complex I)	binding result (subunit 1 of complex III)
SHYEEGPGKNIPFSVENKWRLLAMMTLFFGSGFAAPFFIVRHQLLKK (natural protein, UniProt P00430 17-63, looked up, complex IV subunit COX7C, bovine heart; stood in the assay as a subunit of complex IV within the respirasome; source: endogenous, bovine heart mitochondria; part of the supercomplex I1III2IV1 purified in amphipol A8-35) [complex IV subunit COX7C]	binds	
COX7A1 of cytochrome c oxidase (complex IV) (natural protein, UniProt P07470 22-80, looked up, complex IV subunit COX7A1, bovine heart; stood in the assay as a subunit of complex IV within the respirasome; source: endogenous, bovine heart mitochondria; part of the supercomplex I1III2IV1 purified in amphipol A8-35) FENRVAEKQKLFQEDNGLPVHLKGGATDNILYRVTMTLCLGGTLYSLYCLGWASFPHKK		binds
